Measured values taken from US20250109215A1 (Xencor, published 2025).
Substitutions are numbered along the chain they refer to. Values belong to the binder of their own block, whether it stands above or below them.

Columns and labels:
human CD123 [1] = target: T1, human CD123 (human, UniProt P26951 19-305, limits assumed); experiment: Biacore, Fab-His on CD123 (Example 3; the sheet names no assay)
T1 construct: Construct on the chip is not described; also called CD123 chip
T1 sequence (looked up): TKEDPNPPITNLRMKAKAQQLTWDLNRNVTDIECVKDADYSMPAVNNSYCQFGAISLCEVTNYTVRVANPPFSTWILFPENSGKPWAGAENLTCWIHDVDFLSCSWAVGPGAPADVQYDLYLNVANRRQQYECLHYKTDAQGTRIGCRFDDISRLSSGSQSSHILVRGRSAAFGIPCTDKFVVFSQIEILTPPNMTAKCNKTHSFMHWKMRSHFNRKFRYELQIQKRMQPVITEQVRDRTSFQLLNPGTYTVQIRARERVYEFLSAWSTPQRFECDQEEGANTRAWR

human CD123 [2] = target: T1, human CD123; experiment: SPR sensorgrams on CD123 (highest trace about 160 RU); the value is printed over the panel without a name and equals the rounded KD of Figure 127
CD123 on KG-1a cells = CD123 on KG-1a cells (human, UniProt P26951 19-378); experiment: cell-based or functional assay
CD3 [3] = target: T2, CD3 (Homo sapiens (Human), UniProt P07766 23-126; P04234 22-105); experiment: Biacore
T2 construct: not shown: The Fc carrier of the Sino Biological CD3 delta-epsilon-Fc heterodimer; copies: 1 + 1
T2 sequence (P07766 23-126 limits assumed, chain 1 of 2): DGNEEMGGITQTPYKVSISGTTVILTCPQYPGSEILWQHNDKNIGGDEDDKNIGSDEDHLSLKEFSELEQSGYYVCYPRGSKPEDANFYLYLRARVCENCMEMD
T2 sequence (P04234 22-105 limits assumed, chain 2 of 2): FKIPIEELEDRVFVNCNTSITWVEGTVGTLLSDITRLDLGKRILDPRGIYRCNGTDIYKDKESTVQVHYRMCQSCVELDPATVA

CD3 [4] = target: T2, CD3; experiment: Biacore; column head 'KD (nM)*', anti-CD3 scFv-Fc H1.31_L1.47
CD3 [5] = target: T2, CD3; experiment: Biacore; column head 'KD (nM)*', anti-CD3 scFv-Fc H1.30_L1.47
human CD3 [6] = target: T3, human CD3 (human, UniProt P07766 23-126; P04234 22-105); experiment: method not stated in the legend of FIG. 142
T3 construct: The legend says only human CD3
T3 sequence (P07766 23-126, chain 1 of 2): as the sequence (P07766 23-126 limits assumed, chain 1 of 2) above
T3 sequence (P04234 22-105, chain 2 of 2): as the sequence (P04234 22-105 limits assumed, chain 2 of 2) above

cyno CD3 [7] = target: T4, cyno CD3 (cynomolgus monkey, UniProt Q95LI5 22-117; Q95LI8 22-105); experiment: method not stated in the legend of FIG. 143
T4 construct: The legend says only cyno CD3; also called cynomolgus monkey CD3
T4 sequence (Q95LI5 22-117, form in doubt, chain 1 of 2): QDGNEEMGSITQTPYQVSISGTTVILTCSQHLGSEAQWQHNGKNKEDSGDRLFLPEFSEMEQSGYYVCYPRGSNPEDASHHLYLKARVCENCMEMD
T4 sequence (Q95LI8 22-105, form in doubt, chain 2 of 2): as the sequence (P04234 22-105 limits assumed, chain 2 of 2) above, with I5V, N15K, I20V, S32T, D33N, I34N, T64A, S74N, V83L counted along it

human CD3 [8] = target: T3, human CD3; experiment: SPR; human CD3-Fc (printed 'CD388-Fc', Sino Biological) covalently bound to the chip; test article passed over at 3.125, 12.5, 50 and 200 nM
human CD3 [9] = target: T3, human CD3; experiment: SPR; human CD3-Fc (printed 'CD388-Fc', Sino Biological) covalently bound to the chip; test article passed over at 31.25, 125, 500 and 2000 nM
cyno CD3 [10] = target: T4, cyno CD3; experiment: SPR; cynomolgus monkey CD3-Fc (printed 'CD388-Fc', Sino Biological) covalently bound to the chip; test article passed over at 3.125, 12.5, 50 and 200 nM
cyno CD3 [11] = target: T4, cyno CD3; experiment: SPR; cynomolgus monkey CD3-Fc (printed 'CD388-Fc', Sino Biological) covalently bound to the chip; test article passed over at 31.25, 125, 500 and 2000 nM
human CD123 [12] = target: T1, human CD123; experiment: off-rate screen of Fab-His on a Biacore CD123 chip (Example 3), relative to 7G3 H1L1 Fab
human CD123 [13] = target: T1, human CD123; experiment: SPR sensorgrams of the Fab on CD123 (highest trace about 153 RU); the value is printed over the panel without a name and equals the rounded KD of Figure 127

- Ka (human CD123 [1]): 1.05e+10 M⁻¹
- Kd (human CD123 [1]): 0.0954 nM
- koff (human CD123 [1]): 6.25e-05 s⁻¹
- kon (human CD123 [1]): 655000 M⁻¹ s⁻¹
- Kd (human CD123 [2]): 0.1 nM
B1: 13967 7G3_H1.109_L1.57_Fab_His (Fab, V domains shown)
VH: QVQLQQSGAEVKKPGASVKVSCKASGYTFTDYYMKWVKQSHGKSLEWMGDIIPSNGATFYNQKFKGKATLTVDRSTSTAYMELSSLRSEDTAVYYCARSHLLRASWFAYWGQGTLVTVSS
VL: DFVMTQSPDSLAVSLGERATINCKSSQSLLNTGNQKNYLTWYQQKPGQPPKLLIYWASTRESGVPDRFTGSGSGTDFTLTISSLQAEDVAVYYCQNDYSYPYTFGGGTKLEIKR
notes: also called XENP13967

- RTCC % of KG-1a cells: EC50 (read off the curve) (CD123 on KG-1a cells): ~0.8 ng/mL
B2: 13928B (bispecific antibody)
Heavy Chain 1 (Anti-CD123 Fab-Fc (7G3_H0)): EVQLQQSGPELVKPGASVKMSCKASGYTFTDYYMKWVKQSHGKSLEWIGDIIPSNGATFYNQKFKGKATLTVDRSSSTAYMHLNSLTSEDSAVYYCTRSHLLRASWFAYWGQGTLVTVSAASTKGPSVFPLAPSSKSTSGGTAALGCLVKDYFPEPVTVSWNSGALTSGVHTFPAVLQSSGLYSLSSVVTVPSSSLGTQTYICNVNHKPSDTKVDKKVEPKSCDKTHTCPPCPAPPVAGPSVFLFPPKPKDTLMISRTPEVTCVVVDVKHEDPEVKFNWYVDGVEVHNAKTKPREEEYNSTYRVVSVLTVLHQDWLNGKEYKCKVSNKALPAPIEKTISKAKGQPREPQVYTLPPSREEMTKNQVSLTCDVSGFYPSDIAVEWESDGQPENNYKTTPPVLDSDGSFFLYSKLTVDKSRWEQGDVFSCSVMHEALHNHYTQKSLSLSPGK
Heavy Chain 2 (Anti-CD3 scFv-Fc (aCD3_H1.30_L1.47)): not shown
Light Chain (Anti-CD123 LC (7G3_L0)): DFVMTQSPSSLTVTAGEKVTMSCKSSQSLLNSGNQKNYLTWYLQKPGQPPKLLIYWASTRESGVPDRFTGSGSGTDFTLTISSVQAEDLAVYYCQNDYSYPYTFGGGTKLEIKRTVAAPSVFIFPPSDEQLKSGTASVVCLLNNFYPREAKVQWKVDNALQSGNSQESVTEQDSKDSTYSLSSTLTLSKADYEKHKVYACEVTHQGLSSPVTKSFNRGEC

- Fold Decrease in CD3 binding from H1.30_L1.47 (CD3 [3]): 330 fold
- Kd (CD3 [4]): 1640 nM
B3: XENP14701 (bispecific antibody)
heavy: EVQLVESGGGLVQPGGSLRLSCAASGFDFSRSWMNWVRQAPGKGLEWVSEINPDSSTINYATSVKGRFTISRDNSKNTLYLQMNSLRAEDTAVYYCARYGNWFPYWGQGTLVTVSSASTKGPSVFPLAPSSKSTSGGTAALGCLVKDYFPEPVTVSWNSGALTSGVHTFPAVLQSSGLYSLSSVVTVPSSSLGTQTYICNVNHKPSDTKVDKKVEPKSCDKTHTCPPCPAPPVAGPSVFLFPPKPKDTLMISRTPEVTCVVVDVKHEDPEVKFNWYVDGVEVHNAKTKPREEEYNSTYRVVSVLTVLHQDWLNGKEYKCKVSNKALPAPIEKTISKAKGQPREPQVYTLPPSREEMTKNQVSLTCDVSGFYPSDIAVEWESDGQPENNYKTTPPVLDSDGSFFLYSKLTVDKSRWEQGDVFSCSVMHEALHNHYTQKSLSLSPGK
scFv-Fc: not shown
light: DIVMTQSPSSLSASVGDRVTITCRASQNVDTNVAWYQQKPGQSPKALIYSASYRYSGVPDRFTGSGSGTDFTLTISSLQPEDFATYFCQQYDSYPLTFGGGTKLEIKRTVAAPSVFIFPPSDEQLKSGTASVVCLLNNFYPREAKVQWKVDNALQSGNSQESVTEQDSKDSTYSLSSTLTLSKADYEKHKVYACEVTHQGLSSPVTKSFNRGEC
notes: anti-CD38 x anti-CD3; copies: 1 + 1 + 1

- Fold Decrease in CD3 binding from H1.30_L1.47 (CD3 [3]): 330 fold
- Kd (CD3 [4]): 1640 nM
B4: XENP14703 (bispecific antibody)
heavy: B3 heavy
scFv-Fc: not shown
light: B3 light with Y55K
notes: anti-CD38 x anti-CD3

- Fold Decrease in CD3 binding from H1.30_L1.47 (CD3 [3]): 1 fold
- Kd (CD3 [5]): 4.91 nM
B5: XENP13243 (bispecific antibody)
heavy: B3 heavy
scFv-Fc: not shown
light: B3 light
notes: as for B3

- Fold Decrease in CD3 binding from H1.30_L1.47 (CD3 [3]): 330 fold
- Kd (CD3 [4]): 1640 nM
B6: XmAb14702 (bispecific antibody)
heavy: B3 heavy with D28T, R31Y, D54Q
scFv-Fc: not shown
light: B3 light with N32W

- Kd (human CD3 [6]): 8.1 nM
- Kd (cyno CD3 [7]): 5.7 nM
B7: XENP14045 (anti-CD123 x anti-CD3) bispecific (bispecific antibody)
heavy: QVQLQQSGAEVKKPGASVKVSCKASGYTFTDYYMKWVKQSHGKSLEWMGDIIPSNGATFYNQKFKGKATLTVDRSTSTAYMELSSLRSEDTAVYYCARSHLLRASWFAYWGQGTLVTVSSASTKGPSVFPLAPSSKSTSGGTAALGCLVKDYFPEPVTVSWNSGALTSGVHTFPAVLQSSGLYSLSSVVTVPSSSLGTQTYICNVNHKPSDTKVDKKVEPKSCDKTHTCPPCPAPPVAGPSVFLFPPKPKDTLMISRTPEVTCVVVDVKHEDPEVKFNWYVDGVEVHNAKTKPREEEYNSTYRVVSVLTVLHQDWLNGKEYKCKVSNKALPAPIEKTISKAKGQPREPQVYTLPPSREEMTKNQVSLTCDVSGFYPSDIAVEWESDGQPENNYKTTPPVLDSDGSFFLYSKLTVDKSRWEQGDVFSCSVMHEALHNHYTQKSLSLSPGK
scFv-Fc: not shown
light: not shown
notes: XENP13967 has the same CD123 side with a different CD3 scFv

- Kd (human CD3 [8]): 110 nM
- Kd (human CD3 [9]): 220 nM
- Kd (cyno CD3 [10]): 100 nM
- Kd (cyno CD3 [11]): 160 nM
B8: XENP14390 (bispecific antibody)
HC 1 (Fab-Fc): QVQLVQSGAEVKKPGASVKVSCKASGYTFTSYNMHWVRQAPGQRLEWMGAIYPGNGATSYSQKFQGRVTITADTSASTAYMELSSLRSEDTAVYYCARSYYMGGDWYFDVWGAGTLVTVSSASTKGPSVFPLAPSSKSTSGGTAALGCLVKDYFPEPVTVSWNSGALTSGVHTFPAVLQSSGLYSLSSVVTVPSSSLGTQTYICNVNHKPSDTKVDKKVEPKSCDKTHTCPPCPAPPVAGPSVFLFPPKPKDTLMISRTPEVTCVVVDVKHEDPEVKFNWYVDGVEVHNAKTKPREEEYNSTYRVVSVLTVLHQDWLNGKEYKCKVSNKALPAPIEKTISKAKGQPREPQVYTLPPSREEMTKNQVSLTCDVSGFYPSDIAVEWESDGQPENNYKTTPPVLDSDGSFFLYSKLTVDKSRWEQGDVFSCSVMHEALHNHYTQKSLSLSPGK
HC 2 (scFv-Fc): not shown
light: QIVLTQSPSSLSASVGDRVTITCRASWSVSYIHWFQQKPGKSPKPLIYATSNLASGVPVRFSGSGSGTDYTLTISSLQPEDFATYYCQQWTHNPPTFGGGTKVEIKRTVAAPSVFIFPPSDEQLKSGTASVVCLLNNFYPREAKVQWKVDNALQSGNSQESVTEQDSKDSTYSLSSTLTLSKADYEKHKVYACEVTHQGLSSPVTKSFNRGEC
notes: anti-CD3 scFv H1.33_L1.47; also called Anti-CD20 (C2B8_H1.202_L1.113) x Anti-CD3 (H1.33_L1.47) Fab-scFv-Fc; CD3med

- Ka (human CD123 [1]): 6.25e+09 M⁻¹
- Kd (human CD123 [1]): 0.16 nM
- koff (human CD123 [1]): 0.000108 s⁻¹
- kon (human CD123 [1]): 674000 M⁻¹ s⁻¹
- Fold improvement in off-rate vs. H1L1 (human CD123 [12]): 7.21 fold
- Kd (human CD123 [13]): 0.2 nM
B9: 13760 7G3_H0L0_Fab_His (Fab, V domains shown)
VH: EVQLQQSGPELVKPGASVKMSCKASGYTFTDYYMKWVKQSHGKSLEWIGDIIPSNGATFYNQKFKGKATLTVDRSSSTAYMHLNSLTSEDSAVYYCTRSHLLRASWFAYWGQGTLVTVSA
VL: DFVMTQSPSSLTVTAGEKVTMSCKSSQSLLNSGNQKNYLTWYLQKPGQPPKLLIYWASTRESGVPDRFTGSGSGTDFTLTISSVQAEDLAVYYCQNDYSYPYTFGGGTKLEIKR
notes: Fab of the murine 7G3 variable regions; also called XENP13760
